B1: Golgi SNAP receptor complex member 2 (Homo sapiens), O14653 (parent)
chain: MDPLFQQTHKQVHEIQSCMGRLETADKQSVHIVENEIQASIDQIFSRLERLEILSSKEPPNKRQNARLRVDQLKYDVQHLQTALRNFQHRRHAREQQERQREELLSRTFTTNDSDTTIPMDESLQFNSSLQKVHNGMDDLILDGHNILDGLRTQRLTLKGTQKKILDIANMLGLSNTVMRLIEKRAFQDKYFMIGGMLLTCVVMFLVVQYLT
partner: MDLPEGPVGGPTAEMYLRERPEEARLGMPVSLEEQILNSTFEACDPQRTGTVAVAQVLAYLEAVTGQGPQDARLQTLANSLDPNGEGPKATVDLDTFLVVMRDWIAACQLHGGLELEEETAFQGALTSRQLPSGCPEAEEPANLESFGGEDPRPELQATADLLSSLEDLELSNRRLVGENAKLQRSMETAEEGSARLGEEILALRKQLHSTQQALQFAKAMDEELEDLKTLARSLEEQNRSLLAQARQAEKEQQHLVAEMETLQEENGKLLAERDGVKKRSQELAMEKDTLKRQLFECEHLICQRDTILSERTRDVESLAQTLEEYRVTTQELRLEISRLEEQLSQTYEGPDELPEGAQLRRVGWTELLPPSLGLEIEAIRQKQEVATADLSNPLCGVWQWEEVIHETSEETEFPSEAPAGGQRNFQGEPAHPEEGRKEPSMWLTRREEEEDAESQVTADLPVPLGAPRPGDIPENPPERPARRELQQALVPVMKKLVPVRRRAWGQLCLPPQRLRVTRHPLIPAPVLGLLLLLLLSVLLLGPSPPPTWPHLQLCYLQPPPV
B2: Succinate--CoA ligase [ADP-forming] subunit beta, mitochondrial (Homo sapiens), Q9P2R7 (parent)
chain: MAASMFYGRLVAVATLRNHRPRTAQRAAAQVLGSSGLFNNHGLQVQQQQQRNLSLHEYMSMELLQEAGVSVPKGYVAKSPDEAYAIAKKLGSKDVVIKAQVLAGGRGKGTFESGLKGGVKIVFSPEEAKAVSSQMIGKKLFTKQTGEKGRICNQVLVCERKYPRREYYFAITMERSFQGPVLIGSSHGGVNIEDVAAESPEAIIKEPIDIEEGIKKEQALQLAQKMGFPPNIVESAAENMVKLYSLFLKYDATMIEINPMVEDSDGAVLCMDAKINFDSNSAYRQKKIFDLQDWTQEDERDKDAAKANLNYIGLDGNIGCLVNGAGLAMATMDIIKLHGGTPANFLDVGGGATVHQVTEAFKLITSDKKVLAILVNIFGGIMRCDVIAQGIVMAVKDLEIKIPVVVRLQGTRVDDAKALIADSGLKILACDDLDEAARMVVKLSEIVTLAKQAHVDVKFQLPI

Variants of: B1
Settings: with kash5_human KASH5, Q8N6L0

**Q.** Which “effect of a mutation on the interaction” value does the source give for MDPLFQQTHKQVHEIQSCMGRLETADKQSVHIVENEIQASIDQIFSRLERLEILSSKEPPNKRQNARLRVDQLKYDVQHLQTALRNFQHRRHAREQQERQREELLSRTFTTNDSDTTIPMDESLQFNSSLQKVHNGMDDLILDWHNILDGLRTQRLTLKGTQKKILDIANMLGLSNTVMRLIEKRAFQDKYFMIGGMLLTCVVMFLVVQYLT [G144W] here?
**A.** The value was “with no effect”.

Variants of: B2
Settings: with sc23a_human SEC23A

**Q.** How did the “effect of a mutation on the interaction” value turn out when MAASMFYGRLVAVATLRNHRPRTAQRAAAQVLGSSGLFNNHGLQVQQQQQRNLSLHEYMSMELLQEAGVSVPKGYVAKSPDEAYAIAKKLGSKDVVIKAQVLAGGRGKGTFESGLKGRVKIVFSPEEAKAVSSQMIGKKLFTKQTGEKGRICNQVLVCERKYPRREYYFAITMERSFQGPVLIGSSHGGVNIEDVAAESPEAIIKEPIDIEEGIKKEQALQLAQKMGFPPNIVESAAENMVKLYSLFLKYDATMIEINPMVEDSDGAVLCMDAKINFDSNSAYRQKKIFDLQDWTQEDERDKDAAKANLNYIGLDGNIGCLVNGAGLAMATMDIIKLHGGTPANFLDVGGGATVHQVTEAFKLITSDKKVLAILVNIFGGIMRCDVIAQGIVMAVKDLEIKIPVVVRLQGTRVDDAKALIADSGLKILACDDLDEAARMVVKLSEIVTLAKQAHVDVKFQLPI [G118R] was run?
**A.** Its value is “disrupting interaction strength”.

Variants of: B2
Settings: with mal2_human MAL2, Q969L2
Sequence of mal2_human MAL2, Q969L2 (Q969L2 whole entry): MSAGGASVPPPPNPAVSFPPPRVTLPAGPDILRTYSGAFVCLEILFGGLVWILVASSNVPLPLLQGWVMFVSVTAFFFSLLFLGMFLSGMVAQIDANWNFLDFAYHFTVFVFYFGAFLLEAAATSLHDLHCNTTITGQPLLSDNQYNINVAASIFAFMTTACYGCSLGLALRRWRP

**Q.** For MAASMFYGRLVAVATLRNHRPRTAQRAAAQVLGSSGLFNNHGLQVQQQQQRNLSLHEYMSMELLQEAGVSVPKGYVAKSPDEAYAIAKKLGSKDVVIKAQVLAGGRGKGTFESGLKGRVKIVFSPEEAKAVSSQMIGKKLFTKQTGEKGRICNQVLVCERKYPRREYYFAITMERSFQGPVLIGSSHGGVNIEDVAAESPEAIIKEPIDIEEGIKKEQALQLAQKMGFPPNIVESAAENMVKLYSLFLKYDATMIEINPMVEDSDGAVLCMDAKINFDSNSAYRQKKIFDLQDWTQEDERDKDAAKANLNYIGLDGNIGCLVNGAGLAMATMDIIKLHGGTPANFLDVGGGATVHQVTEAFKLITSDKKVLAILVNIFGGIMRCDVIAQGIVMAVKDLEIKIPVVVRLQGTRVDDAKALIADSGLKILACDDLDEAARMVVKLSEIVTLAKQAHVDVKFQLPI [G118R], which “effect of a mutation on the interaction” value is on record?
**A.** The value was “disrupting interaction strength”.

Variants of: B2
Settings: with ar6p1_human ARL6IP1, Q15041
Sequence of ar6p1_human ARL6IP1, Q15041 (Q15041 whole entry): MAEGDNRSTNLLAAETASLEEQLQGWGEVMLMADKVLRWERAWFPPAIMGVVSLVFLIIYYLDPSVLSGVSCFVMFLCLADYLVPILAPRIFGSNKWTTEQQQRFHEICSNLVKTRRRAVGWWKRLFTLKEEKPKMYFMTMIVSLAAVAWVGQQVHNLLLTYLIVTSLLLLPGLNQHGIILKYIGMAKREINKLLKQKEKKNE

**Q.** With MAASMFYGRLVAVATLRNHRPRTAQRAAAQVLGSSGLFNNHGLQVQQQQQRNLSLHEYMSMELLQEAGVSVPKGYVAKSPDEAYAIAKKLGSKDVVIKAQVLAGGRGKGTFESGLKGRVKIVFSPEEAKAVSSQMIGKKLFTKQTGEKGRICNQVLVCERKYPRREYYFAITMERSFQGPVLIGSSHGGVNIEDVAAESPEAIIKEPIDIEEGIKKEQALQLAQKMGFPPNIVESAAENMVKLYSLFLKYDATMIEINPMVEDSDGAVLCMDAKINFDSNSAYRQKKIFDLQDWTQEDERDKDAAKANLNYIGLDGNIGCLVNGAGLAMATMDIIKLHGGTPANFLDVGGGATVHQVTEAFKLITSDKKVLAILVNIFGGIMRCDVIAQGIVMAVKDLEIKIPVVVRLQGTRVDDAKALIADSGLKILACDDLDEAARMVVKLSEIVTLAKQAHVDVKFQLPI [G118R] as the variant, how does the “effect of a mutation on the interaction” value read?
**A.** Its value is “disrupting interaction strength”.

— IntAct's records for PubMed 32296183
